Source: article doi:10.1101/391656 (bioRxiv, 2018)

Target: V1ΔC (S. cerevisiae, UniProt P17255 2-283; P17255 738-1071; P16140 1-517; P32610 1-256; P22203 1-233; P39111 …)
Assay: BLI

B1: MBP-C (natural protein, S. cerevisiae, UniProt P31412 1-392, looked up)
chain: MATALYTANDFILISLPQNAQPVTAPGSKTDSWFNETLIGGRAFVSDFKIPEFKIGSLDTLIVESEELSKVDNQIGASIGKIIEILQGLNETSTNAYRTLPINNMPVPEYLENFQWQTRKFKLDKSIKDLITLISNESSQLDADVRATYANYNSAKTNLAAAERKKTGDLSVRSLHDIVKPEDFVLNSEHLTTVLVAVPKSLKSDFEKSYETLSKNVVPASASVIAEDAEYVLFNVHLFKKNVQEFTTAAREKKFIPREFNYSEELIDQLKKEHDSAASLEQSLRVQLVRLAKTAYVDVFINWFHIKALRVYVESVLRYGLPPHFNIKIIAVPPKNLSKCKSELIDAFGFLGGNAFMKDKKGKINKQDTSLHQYASLVDTEYEPFVMYIINL
  Kd: ~0.7 nM
